# According to patent publication US20040071712A1:
# Molecular target: human mpl receptor (c-Mpl, the TPO receptor) (human) (UniProt P40238)
# Experiment: cell-based or functional assay
Binder,increase in potency as compared to the monomer (cell proliferation assay),loss of activity against the equivalent GGGG-linked analog (cell proliferation assay),potency as compared to the monomer (cell proliferation assay)
"IEGPTLRQWLAARAGIEGPTLRQWLAARA [TMP-(G)n-TMP, n = 1 (peptide 2)]",> 1000 fold,–,–
"IEGPTLRQWLAARAGGGGIEGPTLRQWLAARA [TMP-(G)n-TMP, n = 4 (peptide 5)]",> 1000 fold,–,–
"IEGPTLRQWLAARAGGGGGIEGPTLRQWLAARA [TMP-(G)n-TMP, n = 5 (peptide 6)]",> 1000 fold,–,–
"IEGPTLRQWLAARAGGGGGGIEGPTLRQWLAARA [TMP-(G)n-TMP, n = 6 (peptide 7)]",> 1000 fold,–,–
"IEGPTLRQWLAARAGGGIEGPTLRQWLAARA [TMP-(G)n-TMP, n = 3 (peptide 4)]",> 1000 fold,–,–
"IEGPTLRQWLAARAGGGGGGGIEGPTLRQWLAARA [TMP-(G)n-TMP, n = 7 (peptide 8)]",> 1000 fold,–,–
"IEGPTLRQWLAARAIEGPTLRQWLAARA [TMP-(G)n-TMP, n = 0 (peptide 1)]",> 1000 fold,–,–
"IEGPTLRQWLAARAGGIEGPTLRQWLAARA [TMP-(G)n-TMP, n = 2 (peptide 3)]",> 1000 fold,–,–

# Second part, the binder after the results:
increase in potency as compared to the monomer (cell proliferation assay),loss of activity against the equivalent GGGG-linked analog (cell proliferation assay),potency as compared to the monomer (cell proliferation assay),Binder
–,> 10 fold,100 fold,IEGPTLRQWLAARAGPNGIEGPTLRQWLAARA [TMP-GPNG-TMP (peptide 13)]
> 1000 fold,–,–,"IEGPTLRQWLAARAGGGGGGGGIEGPTLRQWLAARA [TMP-(G)n-TMP, n = 8 (peptide 9)]"
> 1000 fold,–,–,"IEGPTLRQWLAARAGGGGGGGGGIEGPTLRQWLAARA [TMP-(G)n-TMP, n = 9 (peptide 10)]"
> 1000 fold,–,–,"IEGPTLRQWLAARAGGGGGGGGGGGGGGIEGPTLRQWLAARA [TMP-(G)n-TMP, n = 14 (peptide 12)]"
> 1000 fold,–,–,"IEGPTLRQWLAARAGGGGGGGGGGIEGPTLRQWLAARA [TMP-(G)n-TMP, n = 10 (peptide 11)]"
